Source: US20220249563A1 (LEGEND BIOTECH IRELAND, published 2022)

T1: extracellular domain of human DLL3 protein (aa27-466) having an N-terminal FLAG tag (AdipoGen, AG-40B-0151) (human, UniProt Q9NYJ7 27-466)
T1 construct: range 27-466; also called DLL3 ECD protein
T1 sequence (looked up): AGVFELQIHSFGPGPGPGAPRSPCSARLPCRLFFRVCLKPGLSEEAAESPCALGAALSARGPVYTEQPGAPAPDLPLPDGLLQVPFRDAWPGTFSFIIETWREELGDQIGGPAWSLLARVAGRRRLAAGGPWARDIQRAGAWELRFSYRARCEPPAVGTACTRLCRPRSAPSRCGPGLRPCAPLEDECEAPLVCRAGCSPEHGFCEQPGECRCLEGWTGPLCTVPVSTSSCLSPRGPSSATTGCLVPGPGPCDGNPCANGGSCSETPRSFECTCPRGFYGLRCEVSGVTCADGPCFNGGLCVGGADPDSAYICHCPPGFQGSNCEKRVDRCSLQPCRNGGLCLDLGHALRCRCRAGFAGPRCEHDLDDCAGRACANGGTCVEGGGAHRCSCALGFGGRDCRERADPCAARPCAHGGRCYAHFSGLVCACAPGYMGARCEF

B1: AS68320 (VHH)
VHH: QVHLVESGGDSVQAGGSLRLSCAASGYTYNTNYMGWFRQAPGKEREGVAAIYRHSGNTAYADSVKGRFTISQDYAKNTVYLQMNSLKPEDTAMYYCAAGRAGPWALMRPTEFGYWGQGTQVTVSS
notes: camel sdAb; crude E. coli supernatant
B2: AS68351 (VHH)
VHH: QVQLEESGGGLVQPGGSLRLSCAASGDTFRAYYMNWVRQAPGKGFEWVSGISASGGRTSYADSVKGRFTISRDNAKNTLYLQLNSLSTEDTGMYYCVKGAVRLSTSSVRDSSWGQGTQVTVSS
notes: as for B1
B3: AS75378 (VHH)
VHH: QVQLEESGGGSVQAGGSLRLSCVVSGNTRSTTYMGWFRQAPGKEREGVAIVYTGGRDTYYAASVKGRFTISQDNAKTTIYLQMNSLEPEDTAMYYCAARSYEYTYWGRGTQVTVSS
notes: as for B1
B4: AS75383 (VHH)
VHH: EVQLAESGGGSVQAGGSLRLSCVASGYTFSSYCLGWFRQAPGKQRQGVATFNNRGVANYHDSVKGRFTASVDNAKNTLLLQMNSLEPDDTAMYYCAADRRYGRQWYQPCEWNTWGQGTQVTVSS
notes: as for B1
B5: AS75751 (VHH)
VHH: QVRLVESGGGSVQAGGSLRLSCVASGYFYNTYYFMGWFRQAPGKEREGVAAIDTDGRTSYADSVKGRFTISKDNAKNTLYLQMNSLKPEDTAMYYCAAGFGYMNVIQALNGMRQNPDYWGQGTQVTVSS
notes: as for B1
B6: AS76422 (VHH)
VHH: QVKLVESGGGSVQAGGSLRLSCAASGYTFAGNCLGWFRQAPGKGREGVVTYNNFGVANYADSVKGRFTVSQDNAKNTLLLQMNSLEPEDTAMYYCAADRRDGRRWSQPCEWNTWGQGTQVTVSS
notes: as for B1
B7: AS64072 (VHH)
VHH: QVQLVESGGGSVQAGGFLRLSCALSGYSYYINLMAWFRQAPGKEREAVAAHGPVSGTAYYTDSVKGRFTISRDPGKNTMYLQMFSLQPEDTALYYCAAETTMGWAHERGYRYWGQGTQVTVSS
notes: as for B1
B8: AS64097 (VHH)
VHH: QVHLMESGGGSVQAGGSLRLSCEASGYTYSRNCMGWFRQAPGKEREGVAAINTGGGSTYYADSLEGRFTISQDNAKNTMYLQMNSLKPEDTAMYYCAAGPDLGGSWCRPVERAFTYWGQGTQVTVSS
notes: as for B1
B9: AS64114 (VHH)
VHH: QVQLQESGGGSVQAGGSLTLSCEASGNTYSTNYMGWFRQAPGKEREEVAVIYTRGGHTYYVDSVRGRFTISQDNAKNTVYLQMNSLKPEDTAMYYCAAASRHRLRLNNPRDYDYWGQGTQVTVSS
notes: as for B1
B10: AS64123 (VHH)
VHH: QVQLAESGGGSVQAGGSLRLSCAASGYTYTSNWLGWFRQAPGKEREEVAIIYTGSGSTHYRSSVKGRFTISQDNAKNTVYLQMNSLKPEDTAMYYCAARFSEYNYWGQGTQVTVSS
notes: as for B1
B11: AS63999 (VHH)
VHH: EVQLVESGGGSVQAGGSLRLSCAASGYTYSSNWMGWFRQAPGKEREEVAIIYTGGISTHYRSSVKGRFTISQDNAKNTVYLQMNSLKPEDTAMYYCAARYTDYNYWGQGTQVTVSS
notes: as for B1
B12: AS64130 (VHH)
VHH: EVQLAESGGGSVQAGGSLRLSCAASGYTYRSNFMGWFRQAPAKEREGVATIDSRGTITYYADSVKGRFTISQDNEKNTVYLQMNSLKPEDTAMYYCAAGGPRTNDDRWYPLRPPGYNYWGQGTQVTVSS
notes: as for B1
B13: AS64137 (VHH)
VHH: QVRLVESGGGSVQAGGSLRLSCAASGSTYSTNFMGWFRQAPGKEREGVATLVTWVERTAYADSVKGRFTISQDRAKNTVYLQMNSLKPEDTAMYYCAAAAASTDVRLLDPGDFAYWGQGTQVTVSS
notes: as for B1
B14: AS63932 (VHH)
VHH: QVQLEESGGGSVQAGGSLRLSCVASGYTYGSTFMGWFRQNPGKEREGVAVIYTGGGSTWYASSVKGRFTISQDNAKNTVYLQMNSLKPEDTAMYYCAARYGSGNVNYWGQGTQVTVSS
notes: as for B1
B15: AS64142 (VHH)
VHH: QVHLMESGGGLVQTGGSLRLSCTASGFTFDRNAMRWYRQAPGKEREGVSCIDWTGANIAYADSVKGRFTISRDNAKNTLYLQMNSLKPEDTGMYYCAADTTSGYCSGFWSTSRYSWGQGTQVTVSS
notes: as for B1
B16: AS64057 (VHH)
VHH: QVQLEESGGGLVQTGGSLRLSCTASGFTFDRNAMRWYRQAPGKEREGVSCISWTGANIAYADSVKGRFTISRDNAKNTLYLQMNSLKPEDTGMYYCAADTTSGSCSGFWSTSRYYWGQGTQVTVSS
notes: as for B1
B17: AS64160 (VHH)
VHH: EVQLVESGGGSVQAGGSLRLSCAASVYTSSSYCMGWFRQAPGKEREGVAAMCFGGLVTHYADSVKGRFTISQDNAKNTVYLQMNSLKPEDTAMYYCAADFGRDKNYLRPLLPHAYNYWGQGTQVTVSS
notes: as for B1
B18: AS64228 (VHH)
VHH: QVQLKESGGGSIQAGGSLRLSCAASGVSYNRCSMGWYRQAPGKGRELVSRIQPGGNTYYADSVKGRFTVSQDNAKNTVSLQMNSLKPEDTAMYYCNALCWRENVNYWGQGTQVTVSS
notes: as for B1
B19: AS64300 (VHH)
VHH: QVHLVESGGGSVQTGGSLRLSCAVSGDIYNLMSMAWFRRAPGKEREGVAYINTIIGNTYYTDSVKGRFTISRDNSKNTLYLQMNNLKPEDTAMYYCAAFNYGGAWYEERSYKYWGQGTQVTVSS
notes: as for B1
B20: AS64395 (VHH)
VHH: QVRLVESGGGSVQAGGSLRLSCAASGSTYSTNFMGWFRQAPGKEREGVATLVTWAERTAYADSVKGRFTISQDRAKNTVYLQMNGLKPEDTAMYYCAAAASTAVRLLDPGDFAYWGQGTQVTVSS
notes: as for B1
B21: AS64443 (VHH)
VHH: QVHLVESGGGSVQAGGSLRLSCAASGYTDSSVYIGWFRQAPGKEREEVAIIYTGGESTHYRSSVKGRFTVSQDNAKNTLYLQMNSLKPEDTAMYYCAARFPAVTYWGQGTQVTVSS
notes: as for B1
B22: AS64597 (VHH)
VHH: QVHLVESGGGSVQAGGSLRLSCAASGYTYRVNFMGWFRQTPGKEREGVATIDSGVGTTYYADSVKGRFTISHNNAKNTIYLQMNSLKPEDTAMYYCAAGGPPTDGDRWYPLRPPGYNYWGQGTQVTVSS
notes: as for B1
B23: AS64634 (VHH)
VHH: QVRLVESGGGSVQAGGSLRLSCAASGYSFRGDFMCMGWFRQTPGKGREGVAVFYPGGGSTNYADSAKGRFTISQDNAKNTMYLQMNTLKPEDTAMYYCAARRWVSGTCYWDSDFHYWGQGTQVTVSS
notes: as for B1
B24: AS69500 (VHH)
VHH: QVRLVESGGGSVQAGGSLRLSCAADRYTYSSACMGWFRQAPGKEREGVASIFTGTGGSTYYADSVKGRFTISQDNAKNTVYLQMNSLKPEDTAIYYCAARAFQVGYCYLRTDVYNYWGQGTQVTVSS
notes: as for B1

Each binder was assayed against T1, extracellular domain of human DLL3 … (assay: ELISA (protein), FACS (cells)).
B1: binds. B2: binds. B3: binds. B4: binds. B5: binds. B6: binds. B7: binds. B8: binds. B9: binds. B10: binds. B11: binds. B12: binds. B13: binds. B14: binds. B15: binds. B16: binds. B17: binds. B18: binds. B19: binds. B20: binds. B21: binds. B22: binds. B23: binds. B24: binds.
